Reference: publication PMC8329864, “Mycobacterium tuberculosis ferritin: a suitable workhorse protein for cryo-EM development” (Acta Crystallographica. Section D, Structural Biology, 2021)

Biological target: the molecule itself
Assay: SEC

B1: bacterioferritin B (BfrB) from Mycobacterium tuberculosis (natural protein)
chain: MTEYEGPKTKFHALMQEQIHNEFTAAQQYVAIAVYFDSEDLPQLAKHFYSQAVEERNHAMMLVQHLLDRDLRVEIPGVDTVRNQFDRPREALALALDQERTVTDQVGRLTAVARDEGDFLGEQFMQWFLQEQIEEVALMATLVRVADRAGANLFELENFVAREVDVAPAASGAPHAAGGRL
notes: also called BrfB; mycobacterial ferritin; copies: 24
B1: binds.
